According to article PMC4778124, “A continuous sirtuin activity assay without any coupling to enzymatic or chemical reactions” (Scientific Reports, 2016):
*: point of attachment. Myristoyl = CCCCCCCCCCCCCC(=O)*

Assays:
[1] = biological target: human sirtuin 6, His-tagged Sirt6 (1-355) (human) (UniProt Q8N6T7)
[2] = substrate: CCCCCCCCCCCCCC(=O)NCCCC[C@H](NC(=O)[C@H](CCCCN)NC(=O)[C@@H]1CCCN1C(=O)[C@H](CC(C)C)NC(=O)[C@H](C)NC(=O)[C@H](CCC(=O)O)NC(C)=O)C(=O)N[C@H](C(=O)NCC(=O)NCC(N)=O)[C@@H](C)O; test: HPLC based activity assay; format: biochemical, human; conditions: other: HPLC; Sirt5 0.5 µM; pH 7.8; 37.0 °C
Procedure: (§1) For the determination of kinetic constants for all sirtuin mediated reactions solutions containing 20 mM TRIS/HCl pH 7.8, 150 mM NaCl, 5 mM MgCl2 (assay-buffer), 500 μM NAD^+ and varying substrate concentrations (0.5–100 μM) were used. Deacylation was started by adding human sirtuin to reach a final concentration of 0.01–0.5 μM. Enzyme-catalyzed reaction was stopped using TFA (1% final concentration) after 1 min to 180 min of incubation at 37 °C depending on substrate reactivity. The cleavage rate of the different TNFα peptide derivatives was analyzed using analytical reversed phase HPLC. 40 to 80 μl of compounds or reaction solutions were injected and separated using a linear gradient from 5% to 95% solvent B within 6min. The product and substrate peaks were quantified using absorbance at 220 nm or 365 nm (absorption of 3-Nitrotyrosyl moiety). The peak areas were integrated and converted to initial velocity rates calculated from the ratio of product area to total peak area. Linear regression of conversions plotted against time yielded reaction rates in μM/min (relative conversion below 20% of substrate). Non-linear regression according to Michaelis-Menten of the reaction rates at different substrate concentrations yielded KM- and kcat-values using the program SigmaPlot 8 (Systat Software, San Jose, USA). All measurements were done in duplicates.

[3] = substrate: CCCCCCCCCCCCCC(=O)NCCCC[C@H](NC(=O)[C@H](CCCCN)NC(=O)[C@@H]1CCCN1C(=O)[C@H](CC(C)C)NC(=O)[C@H](C)NC(=O)[C@H](CCC(=O)O)NC(C)=O)C(=O)N[C@H](C(=O)NCC(=O)NCC(N)=O)[C@@H](C)O; test: HPLC based activity assay; format: biochemical, human; conditions: other: HPLC; Sirt3 0.1 µM; pH 7.8; 37.0 °C
Procedure: as §1
The reactions were performed with 0.1- 0.5 µM sirtuin, 500 µM NAD^+ and 50µM 13/16. All reactions were done in duplicates (n=2).

[4] = substrate: CC(=O)N[C@@H](CCC(=O)O)C(=O)N[C@@H](C)C(=O)N[C@@H](CC(C)C)C(=O)N1CCC[C@H]1C(=O)N[C@@H](CCCCN)C(=O)N[C@@H](CCCCNC(=O)CCCCCCCCCCNC(=O)c1ccccc1N)C(=O)N[C@@H](Cc1ccc(O)c([N+](=O)[O-])c1)C(=O)NCC(=O)NCC(N)=O; test: Continuous fluorescence assay, substrate kinetics; format: biochemical, human; conditions: other: FS (fluorescence spectrometer); Sirt3 0.1 µM; 37.0 °C
Procedure: The fluorescence measurements were performed on a Hitachi F-4500 fluorescence spectrophotometer (Tokyo, Japan) at λEx = 310 nm and λEm = 405 nm (slitEx = 5 nm, slitEm = 2.5 nm, PMT = 700 V for 3, 4 and 5 as well as slitEx = 10 nm, slitEm = 10 nm, PMT = 950 V for 4a). Each reaction mixture contained assay-buffer, 0.5 mM NAD^+ and various peptide concentrations (0.1–100 μM) and was preincubated for 5 minutes at 37 °C. The reaction was started by adding human sirtuin (0.1–0.5 μM) and observed for 5–10 minutes. Product formation could be monitored by increase of relative fluorescence. This signal was converted into product concentration via calibration lines. The slope of the linear regression of product formation against time yielded the reaction velocity rates in μM/s. KM and kcat were obtained by non-linear regression according to Michaelis-Menten. All measurements were done in duplicates. For determination of reaction velocity rates in μM/s calibration lines were necessary. […] The reaction mixture was analyzed with HPLC, to control if the entire peptide substrate was turned to product. Additionally the mixture was diluted (0.1–25 μM) and measured with Hitachi F-4500 fluorescence spectrophotometer at the same conditions as described above.
The microtiter plate fluorescence measurements were performed on a Tecan Infinite M200 microplate reader (Maennedorf, Switzerland) at λEx = 320 nm and λEm = 408 nm (lag time 9 μs, integration time […], gain 160, 170 or 182). The reactions (total volume 100 μl) were measured in black low-binding 96-well microtiter plates (NUNC). […] The signals were converted into product concentration via calibration lines and the resulting data were evaluated as described above (single fluorescence measurement). […] The reaction mixture for the calibration lines was prepared as described for the single fluorescence measurements. […] The resulting plots were analyzed by a competitive inhibition and non-competitive inhibition model using the program Sigma Plot 8. […] The negative Ki value can be determined as intersection with the X-axis from these plots.

[5] = substrate: CC(=O)N[C@@H](CCC(=O)O)C(=O)N[C@@H](C)C(=O)N[C@@H](CC(C)C)C(=O)N1CCC[C@H]1C(=O)N[C@@H](CCCCN)C(=O)N[C@@H](CCCCNC(=O)CCCCCCCCCCNC(=O)c1ccccc1N)C(=O)N[C@@H](Cc1ccc(O)c([N+](=O)[O-])c1)C(=O)NCC(=O)NCC(N)=O; test: purified protein, by the assay type; conditions: other: Sirt1 500 nM; fluorescence spectrophotometer (footnote a); 37.0 °C
Procedure: The reactions (total volume 100 μl) were measured in black low-binding 96-well microtiter plates (NUNC). Assay-buffer, 500 μM NAD^+ and 0.07–200 μM peptide substrate were pre-incubated at 37 °C for 5 min. The reaction was started by adding human sirtuin (0.01–0.5 μM). The signals were converted into product concentration via calibration lines and the resulting data were evaluated as described above (single fluorescence measurement). […] The reaction mixture for the calibration lines was prepared as described for the single fluorescence measurements.

Sequence of human sirtuin 6, His-tagged Sirt6 (1-355) (human) (Q8N6T7 whole entry): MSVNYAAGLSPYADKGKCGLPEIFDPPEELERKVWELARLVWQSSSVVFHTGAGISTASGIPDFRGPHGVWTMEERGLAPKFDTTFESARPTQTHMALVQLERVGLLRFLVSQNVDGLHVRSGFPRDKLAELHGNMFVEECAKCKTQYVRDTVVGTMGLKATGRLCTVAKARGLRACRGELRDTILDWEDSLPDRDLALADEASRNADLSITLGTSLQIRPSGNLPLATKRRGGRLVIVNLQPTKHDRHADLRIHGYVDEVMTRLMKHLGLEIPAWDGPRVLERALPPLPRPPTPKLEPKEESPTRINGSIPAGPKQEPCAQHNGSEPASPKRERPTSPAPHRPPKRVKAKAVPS

B1: myristoylated TNFα-derived peptide 1a (peptide)
peptide: Ac-EALPKK(Myristoyl)TGG-NH2
SMILES: CCCCCCCCCCCCCC(=O)NCCCC[C@H](NC(=O)[C@H](CCCCN)NC(=O)[C@@H]1CCCN1C(=O)[C@H](CC(C)C)NC(=O)[C@H](C)NC(=O)[C@H](CCC(=O)O)NC(C)=O)C(=O)N[C@H](C(=O)NCC(=O)NCC(N)=O)[C@@H](C)O
B1 showed a KM of Sirt6-mediated deacylation, HPLC-based activity assay [1] of 6 µM.

B2: Sirt5 (Homo sapiens) (protein)
chain: SSSMADFRKFFAKAKHIVIISGAGVSAESGVPTFRGAGGYWRKWQAQDLATPLAFAHNPSRVWEFYHYRREVMGSKEPNAGHRAIAECETRLGKQGRRVVVITQNIDELHRKAGTKNLLEIHGSLFKTRCTSCGVVAENYKSPICPALSGKGAPEPGTQDASIPVEKLPRCEEAGCGGLLRPHVVWFGENLDPAILEEVDRELAHCDLCLVVGTSSVVYPAAMFAPQVAARGVPVAEFNTETTPATNRFRFHFQGPCGTTLPEALACHENETVS
notes: made in house
B2 was tested, and the Km [2] was 16.5 ± 3.1 µM, the kcat [2] was 5.7∙10^-3 ± 0.3∙10^-3 s^-1 and the kcat/Km [2] was 3.48∙10^2 M^-1s^-1.

B3: Sirt3 (Homo sapiens) (protein)
chain: MAFWGWRAAAALRLWGRVVERVEAGGGVGPFQACGCRLVLGGRDDVSAGLRGSHGARGEPLDPARPLQRPPRPEVPRAFRRQPRAAAPSFFFSSIKGGRRSISFSVGASSVVGSGGSSDKGKLSLQDVAELIRARACQRVVVMVGAGISTPSGIPDFRSPGSGLYSNLQQYDLPYPEAIFELPFFFHNPKPFFTLAKELYPGNYKPNVTHYFLRLLHDKGLLLRLYTQNIDGLERVSGIPASKLVEAHGTFASATCTVCQRPFPGEDIRADVMADRVPRCPVCTGVVKPDIVFFGEPLPQRFLLHVVDFPMADLLLILGTSLEVEPFASLTEAVRSSVPRLLINRDLVGPLAWHPRSRDVAQLGDVVHGVESLVELLGWTEEMRDLVQRETGKLDGPDK
notes: made in house
B3 was tested, and the Km [3] was 1.6 ± 0.4 µM, the kcat [3] was 4.7∙10^-2 ± 0.3∙10^-2 s^-1 and the kcat/Km [3] was 2.95∙10^4 M^-1s^-1. The Km [4] was 2.4 ± 0.2 µM, the kcat [4] was 1.2∙10^-2 ± 0.3∙10^-3 s^-1 and the kcat/Km [4] was 5.15∙10^3 M^-1s^-1.

B4: Sirt1 (Homo sapiens) (protein)
chain: MADEAALALQPGGSPSAAGADREAASSPAGEPLRKRPRRDGPGLERSPGEPGGAAPEREVPAAARGCPGAAAAALWREAEAEAAAAGGEQEAQATAAAGEGDNGPGLQGPSREPPLADNLYDEDDDDEGEEEEEAAAAAIGYRDNLLFGDEIITNGFHSCESDEEDRASHASSSDWTPRPRIGPYTFVQQHLMIGTDPRTILKDLLPETIPPPELDDMTLWQIVINILSEPPKRKKRKDINTIEDAVKLLQECKKIIVLTGAGVSVSCGIPDFRSRDGIYARLAVDFPDLPDPQAMFDIEYFRKDPRPFFKFAKEIYPGQFQPSLCHKFIALSDKEGKLLRNYTQNIDTLEQVAGIQRIIQCHGSFATASCLICKYKVDCEAVRGDIFNQVVPRCPRCPADEPLAIMKPEIVFFGENLPEQFHRAMKYDKDEVDLLIVIGSSLKVRPVALIPSSIPHEVPQILINREPLPHLHFDVELLGDCDVIINELCHRLGGEYAKLCCNPVKLSEITEKPPRTQKELAYLSELPPTPLHVSEDSSSPERTSPPDSSVIVTLLDQAAKSNDDLDVSESKGCMEEKPQEVQTSRNVESIAEQMENPDLKNVGSSTGEKNERTSVAGTVRKCWPNRVAKEQISRRLDGNQYLFLPPNRYIFHGAEVYSDSEDDVLSSSSCGSNSDSGTCQSPSLEEPMEDESEIEEFYNGLEDEPDVPERAGGAGFGTDGDDQEAINEAISVKQEVTDMNYPSNKS
With B4 the Km [5] was 0.7 ± 0.08 µM.
